Test: soluble on expression in E. coli; label from the status in PepcDB or PDB records

Sequence	soluble on expression in E. coli
MHHHHHHSSGVDLGTENLYFQSNAMNDPKVIVALDYDNLADALAFVDKIDPSTCRLKVGKEMFTLFGPDFVRELHKRGFSVFLDLKFHDIPNTCSKAVKAAAELGVWMVNVHASGGERMMAASREILEPYGKERPLLIGVTVLTSMESADLQGIGILSAPQDHVLRLATLTKNAGLDGVVCSAQEASLLKQHLGREFKLVTPGIRPAGSEQGDQRRIMTPAQAIASGSDYLVIGRPITQAAHPEVVLEEINSSLV	soluble
MHHYRVSGWTLATEIPLPHLFPCSAPAGEAAADITLRQGPVPPPPVPLRLDRDGIQVGADGHTVIDIPNCVRIGLTGGRDIMVDPAPGASWPEIQTWLLGPGLGVICHQRGVLPLHACAIRTGKGGLAIVGNSGAGKSTTATALVQRGHRLLGDDVLVVDPDTGLAQPCFPMVKLWDSSRSALDIGQEGQQSVGGKIGKWHMPMLAAFDPVPRPLSAIVHLRADPAARRPVLTRWPRPHAAAVLDAMTYRVYLADALHGRRHVLSAATRLAAHVPVWELVRTADFADLAEMLDMLEGLAGALEHHHHHH	not soluble
MHIRRDQYMNEYVWETCEELDKKIADRVRLIRKRRSISQEKLSKISNVSLGSIKRFETTGQISLLSLTKIAVALNIADDLRNIFTEIPYNSIEEVINERR	not soluble
MHKLLYTCNLRCRMCPFWRRKDEKLLSLEEEVLMLKSLEKAGVLFMGFEGGEPLLRRDLEDILEESYKRFYTSLVTNGWLLKDRAKSISNYLDYLFVSIDGIGEVHDKIRGISGAFERAVEGIKEARKYLPVAISFTITKENMDQVKDVIELA	soluble
MHLRLRTKNGLITITVSQQCTIRELSEEIERKTGIEVAKQKILYGFPQRELRADADKPVESVLQSGDSLTVDKLSAETEQERTVESSPASTENAYVRRKVPDDNSCLFHAICYVFRSGSVAQLRHIISETVRLNPDLYTEAFLGKSNHEYSRWILLPETWGGAIELSILSKYFQTEISVFDIQTLRLDRYGEAENYEERVFLLYDGIHYDPIARAFLGASREYDVTVFKIWDNEALVGAKSVAEEANKNRQYTDLASFTLMCRNCGAKLKGETSAVEHAKQTGHTNFTEA	not soluble
MHPALWVSKTGLDAQQTNIATISNNLANASTVGYKKSRAVFEDLFYQNINQPGGQSSQNTELPSGLMLGAGSKVVATQKVHTHGNAQTTTNALDMMVEGDGFFQVTLPDGNIGYTRNGQFTLNGEGTLVTSGSGYPVEPEIVI	not soluble
MHPRETIRETFVALIKAAKTVAGDNVFNMRDFNLFIETMPAINISTQSETIEDGHDFGLRRRVLTVDVECYATCEDGARFVDQLAWEVEEIFYANPNLNNTVETCRLQNIAFAFGDNGSLALHGAILTFDVTHITNIPCPDEGKATVGVVEPLVGFKPETGMGNKDKYHKIEGDHVRATR	not soluble
MHPRSKLSQAQRELAVDLFEEGYGSRAVANRLGVRREQVRHLEDRFRLHGRLCLVSKPTKKQYSFDTKMEILRRYRTGELKSDLAKEYGLSSPNLISHWVWQVNKGGSDALQPKPKGRPKGSGQSVPMTEEDTLRRENELLKAEVAYLKKLRDLREQRRG	not soluble
MHSALWVSKTGMAAQDTKMTAISNNLANVNTVGFKRDRVVFEDLFYSIQRQPGAQVDQVNELPSGVQLGSGVRVVGTQKVFTQGNTQNTTQDLDLAVMGQGFFQIENSDGQIMYTRNGQFHINSEGLMVNSQGLPLEPQIQI	not soluble
MHSKMDCVSRSPLFSPLAPAVKAKLITVTHHRKFYQKGQLIRQPLDHQEGMLILDEGTAKIYALAANGKEKIIELLRSGDVVGQHWLFAPHENQGFIQATSDAWVCSIQYDDFQRLLGESASLSLAMINNFGNQLIEAEKNQLRRDLLDAKARLMAYLRDCAVESGQIEFELPLKKKELANILGITPETLSRQFKQLAAEGQIIVNKRQITIC	not soluble
MHSLQNVIPQQQAHIAELQVYNNKLERDLQNKIGSLTSSIEWYLRSMELDPEIKADIEQQINSIDAINPLHAFDDLESVIRNLISDYDKLFLMFKGLIQRSNYQYSFGSE	soluble
MHTDTTRENPQASAPQAADSSQDLAATAPGQLRVIKRNGTVVPYTDDKITVAITKAFLAVEGGTAAASSRIHDTVRRLTEQVTATFKRRMPSGGTIHIEEIQDQVELALMRAGEQKVARDYVIYREARAAERKNAGAASDVAQPHP	not soluble
MHTMHIPSGDVLIPKPKLITEETDPLHIIKTRQKTHGRPVTIAGPMVRYSKLPFRQLCREYNVDIVYSPMILAREYVRNEHARISDLSTNNEDTPLIVQVGVNNVADLLKFVEMVAPYCDGIGINCGCPIKEQIREGIGCALIYNSDLLCSMVHAVKDKYGDKLRIETKIRIHEALDETVELCRKLCDAGVDWITIHGRTRRTRSSQPANLDAIKYIIENISDKNVPVIANGDCFKLSDLERITKYTGAHGVMAVRGLLSNPALFAGYTTCPWGCIEKFCYWALEFGGLPFQLAQHHLYCMLENMELKKSLLKKMMNLKNYISLIDWFNKTFEFKRYGEDGFGMGVEIPYKANSCVQRSASVVERQE	soluble
MHTPVTIIGAGLGGLTLARVLHVHAIPVTVYEADSSPSARAQGGLLDIHDYNGQLAVEAAGLTDEFRAIVLEGRQALRVLDPDGTVRLDRADDGTGGRPEVQRGDLRQILLDSLPAGTVRWGHKVSRARPLGDGRHEVTFADGGTVVTRLLVGADGAWSRVRPLLSSATPEYVGKSVVETYLFDAGTRHPVAAKTVGGGMLIAPAPGKEIFAHREKDDTLHAYVGLSRPLDWFAGIDFTDGAAATARIAREFDGWATELTALITDTDVAPALRALHALPAGHRWERVPGVTLLGDAAHLAAPNGEGANLAMLDGAELGTALAAHPGDVEAALAEYERAMFPRSAEAAGDDMIGMDSPDNTAQGLIDLITENGGLEHHHHHH	soluble
MHTSELLKHIYDINLSYLLLAQRLIVQDKASAMFRLGINEEMATTLAALTLPQMVKLAETNQLVCHFRFDSHQTITQLTQDSRVDDLQQIHTGIMLSTRLLNDVNQPEEALRKKRA	soluble
MHVNGKVALVTGAAQGIGRAFAEALLLKGAKVALVDWNLEAGVQCKAALDEQFEPQKTLFIQCDVADQQQLRDTFRKVVDHFGRLDILVNNAGVNNEKNWEKTLQINLVSVISGTYLGLDYMSKQNGGEGGIIINMSSLAGLMPVAQQPVYCASKHGIVGFTRSAALAANLMNSGVRLNAICPGFVNTAILESIEKEENMGQYIEYKDHIKDMIKYYGILDPPLIANGLITLIEDDALNGAIMKITTSKGIHFQDYDTTPFQAKTQ	not soluble
MIAELHIADDETAVKVLHLQRRAYTIEAQIIGSKALPPLHDTIASLQRCGERFFGYFQGERLVGAIACKRNGKTLRLCRLMVDPDCFRQGIASALLDFVIKQEPSISEIVVTTGSGNAPAIRFYERHGFRAIERIETPERIELTKLVKRSG	not soluble
MIAIIDYGMGNIRSVEQALKYIGAAYIVTSDKEEIFRSDGVILPGVGAFPKAMDILEEKDLVRVLQEIGRSRKPLLGICLGMQLLFEKSEELQDCNGLSLLPGVIRKLKVPYKIPHMGWNELKKEGEIALWNGVEDGSFVYYVHSYYADCPNEIVYGISDYGVKVPGFVAKGNIYGAQFHPEKSGDIGMQMLKNFKGVVETWKSSQLSI	soluble
MIAPQPPMHLSGRCVCPSDPQFVEEKGIQAEDLVIGALENAFQECDDVIGRELEASGQVGGCTALVAVFLQGKLYVANAGDSRAILVRRHEIRQLSSEFTPETERQRIQQLAFTYPELLAGEFTRLEFPRRLKGDDLGQKVLFRDHHMRGWSYKRVEKSDLKYPLIHGQGRQARLLGTLAVSRGLGDHQLRVLDTDIQLKPFLLSIPQVTVLDVHQLAVQEEDVVVMATDGLWDVLSNEQVALLVRSFLTGNQKDDPHRFSELAKMLIHNTQGKDNGATGEGQVSYDDVSVFVIPLHSQAQEGSGH	soluble
MICLEKVEDIPRLQELFAQILIVHHQARSDVLKVKGSKFTDKELEGVIGDANKPVFVYEDEAGTILCHLFLIIKEVSENDGPQKPIKTLFIDDLCVEEKARGQKLGEKLYQFALDYATEQECYNATLHVWNDNQGTLDFYEHLGVKPRYTEMKTVLKLEHHHHHH	not soluble
MICWGEQKRQADPGFFCRKIVEGVSQPIWLVSDTRRTSDIQWFQEAYGAVIQTVRVVASEQSRQQRGWVFTPGVDDAESECGLDNFGNFDWVIENHGDEQCLEDQLEHLLGFIQAKL	not soluble
